One molecule from US7091173 (MYRIAD GENETICS, dated 2006) can be followed below.

The target in the test is T1, FKBP-associated protein FAP48 (FAP48), amino acids 118-418, bait fused to the Gal4 DNA binding domain (human, UniProt P04386 1-147 (Saccharomyces cerevisiae entry)).
T1 construct: range 1-147; Bait of the yeast two-hybrid screen; The coordinates 118-418 are counted on GenBank U73704
Put plainly: yeast two-hybrid; listed as prey of the bait in 'Binding Regions of FAP48 and Its Interacting Partners'; true positive by beta-galactosidase assay. The text has this:
The new construct was selected directly in the yeast strain PNY200 for its ability to drive tryptophane synthesis (genotype of this strain: MATα trp1-901 leu2-3, 112 ura3-52 his3-200 ade2 gal4Δ gal80). In these yeast cells, the bait was produced as a C-terminal fusion protein with the DNA binding domain of the transcription factor Gal4 (amino acids 1 to 147). Prey libraries were transformed into the yeast strain BK100 (genotype of this strain: MATa trp1-901 leu2-3,112 ura3-52 his3-200 gal4Δ gal80 LYS2::GAL-HIS3 GAL2-ADE2 met2::GAL7-lacZ), and selected for the ability to drive leucine synthesis. In these yeast cells, each cDNA was expressed as a fusion protein with the transcription activation domain of the transcription factor Gal4 (amino acids 768 to 881) and a 9 amino acid hemagglutinin epitope tag. PNY200 cells (MATα mating type), expressing the bait, were then mated with BK100 cells (MATa mating type), expressing prey proteins from a prey library. The resulting diploid yeast cells expressing proteins interacting with the bait protein were selected for the ability to synthesize tryptophan, leucine, histidine, and adenine. […]

B1: Dynactin (DCTN1(1278), p150-Glued), amino acids 1063-1205, prey fused to the Gal4 activation domain (other, UniProt P04386 768-881, looked up, not shown: small tags and cut ends)
chain: ANFNQSGNIADSSLSFTFTNSSNGPNLITTQTNSQALSQPIASSNVHDNFMNNEITASKIDDGNNSKPLSPGWTDQTAYNAFGITTGMFNTTTMDDVYNYLFDDEDTPPNPKKEIAGEEQQRGAIPGQAPGSVPGPGLVKDSPLLLQQISAMRLHISQLQHENSILKGAQMKASLASLPPLHVAKLSHEGPGSELPAGALYRKTSQLLETLNQLSTHTHVVDITRTSPAAKSPSAQLMEQVAQLKSLSDTVEKLKDE
notes: range 768-881;range 1063-1205; Prey clone of the yeast two-hybrid screen; Coordinates are counted on the GenBank entry; also called 150 kD dynein-associated polypeptide; DP-150
Consider B1, for which the binding result is listed as “binds”.
